In test [1] the target is T1, pTag9aa (free, without cargo) (Clostridium tetani, tetanus …).
Test [2] deals with T2, pTag_(18aa) (original 18 amino acid peptide tag) (Clostridium tetani, tetanus …).
In the next test the target is pTag_(12aa) (Clostridium tetani, tetanus …). The experiment in a line: SPR; […]; 25 °C, HBS with 0.05% Tween20, pH 7.5; Biacore T200, 1:1 Langmuir model. To be noted: both partners purified.
For test [3], the target named is T1, pTag9aa (free, without cargo). Described as above. To be noted: both partners purified.
In test [4] the target is T2, pTag_(18aa) (original 18 amino acid …). Described as above. To be noted: both partners purified.
In another test the target is T3, human CD40-Fc (human, UniProt P25942).
T3 construct: also called hCD40-Fc
The experiment in a line: SPR; wildtype against deimmunized variant on the CD40 protein (Supplementary Fig. 3B); format of this experiment not told in what was shown. To be noted: both partners purified.

Our source for the binding result and Kd values is publication PMC11538452 (Nature Communications, 2024).

Read-outs that look alike come from different tables or passages of the source.

T3 sequence (P25942 21-193): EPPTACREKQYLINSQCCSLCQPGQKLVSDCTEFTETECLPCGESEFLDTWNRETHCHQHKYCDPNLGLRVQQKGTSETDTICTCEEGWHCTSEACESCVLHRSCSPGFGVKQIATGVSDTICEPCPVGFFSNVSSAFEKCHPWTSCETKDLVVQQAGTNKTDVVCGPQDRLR

B1: BiA9*2_HF (antibody, V domains shown)
VH: QVQLVQSGAEVKKPGASVKVSCKASGFNIKDFNIHWVRQAPGQGLEWIGRIDPENGDAEYVPKFQGRVTMTRDTSTSTVYMELSSLRSEDTAVYYCTTGSYDLDVEYWGQGTLVTVSS
VL: DIQMTQSPSSLSASVGDRVTITCHASQNINVWLSWYQQKPGKAPKLLIYKASTLHTGVPSRFSGSGSGTDFTLTISSLQPEDFATYYCQQGQSYPLTFGQGTKLEIK
On to B1, for which the binding result in test [1] and in test [2] was “binds” in each case.

B2:  (scFv, V domains shown)
VH: QVQLVQSGAEVKKPGASVKVSCKASGFNIKDFNIHWVRQAPGQGLEWIGRIDPESGDAEYVPKFQGRVTMTRDTSTSTVYMELSSLRSEDTAVYYCTTGSYDLDVEYWGQGTLVTVSS
VL: DIQMTQSPSSLSASVGDRVTITCHASQNINVWLSWYQQKPGKAPKLLIYKASTLHTGVPSRFSGSGSGTDFTLTISSLQPEDFATYYCQQGQSYPLTFGQGTKLEIK
notes: also called humanized scFv; humanized single chain clone SG; source: E. coli, purified (Ni-NTA)
Take B2: the binding result (with pTag_(12aa); in test [3]; in test [4]) was “binds” throughout.

B3: A9 anti-CD40 antibody, wildtype variant (before deimmunization) (antibody, V domains shown)
VH: EVQLLESGGGLVQPGGSLRLSCAASGFTFSSYAMSWVRQAPGKGLEWVSGISGYSGSTYYADSVKGRFTISRDNSKNTLYLQMNSLRAEDTAVYYCARYYSYYGYYYFDYWGQGTLVTVSS
VL: DIQMTQSPSSLSASVGDRVTITCRASQSISSYLNWYQQKPGKAPKLLIYAASSLQSGVPSRFSGSGSGTDFTLTISSLQPEDFATYYCQQGYPYPFTFGQGTKLEIK
notes: also called WT; original variant
As to B3, the Kd with human CD40-Fc came out at 3.4 nM.

B4: murine anti-pTag scFv (scFv, V domains shown)
VH: EVRLLQSGAALVRPGASVKLSCTASGFNIKDFNIHWVKQRPEQGLEWIGRIDPENGDAEYVPKFQVRATMTTDTSSNTVYLHLSSLTSGDTAVYYCTTGSYDLDVEYWGQGTTLTVSS
VL: ELQMTQSPSSLSASLGDTVTITCHASQNINVWLSWYQQRPGNIPKLLIYKASTLHTGVPSRFRGSGSGTGFTLTISSLQPEDIATYYCQQGQSYPLTFGAGTKLELK
notes: also called murine scFv; mscFv
Take B4: the binding result in the test with pTag_(12aa) is “binds”. In addition, in test [4], the Kd was 4 nM.
